In publication PMC2752052:

Tested on: NC(=O)c1ccc[n+]([C@@H]2O[C@H](COP(=O)([O-])OP(=O)(O)OC[C@H]3O[C@@H](n4cnc5c(N)ncnc54)[C@H](O)[C@@H]3O)[C@@H](O)[C@H]2O)c1
Test: purified protein
Assay type: biochemical, Homo sapiens

CD38 (Homo sapiens)
Km: 17 ± 6 µM
